Measured values as given in patent US20200002421A1 (AbbVie / Abbott, published 2020).

T1: Human full length B7-H3 (human, UniProt Q5ZPR3 29-534)
T1 sequence: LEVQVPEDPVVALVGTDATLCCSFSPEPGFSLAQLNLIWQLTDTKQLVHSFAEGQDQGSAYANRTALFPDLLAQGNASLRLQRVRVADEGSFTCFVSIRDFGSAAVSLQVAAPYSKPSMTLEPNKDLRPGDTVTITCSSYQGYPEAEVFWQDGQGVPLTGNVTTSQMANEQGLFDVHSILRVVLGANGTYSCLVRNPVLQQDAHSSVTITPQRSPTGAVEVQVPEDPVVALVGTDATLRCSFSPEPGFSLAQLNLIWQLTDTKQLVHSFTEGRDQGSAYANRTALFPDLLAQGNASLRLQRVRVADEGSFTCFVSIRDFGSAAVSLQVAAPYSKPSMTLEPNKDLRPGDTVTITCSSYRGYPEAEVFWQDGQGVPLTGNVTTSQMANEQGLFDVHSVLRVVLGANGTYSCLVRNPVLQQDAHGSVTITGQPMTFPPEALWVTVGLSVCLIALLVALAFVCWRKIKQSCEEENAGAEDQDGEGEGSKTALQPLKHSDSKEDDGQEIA


Molecular target: T1, Human full length B7-H3
Test: cell-based or functional assay

Row | Binder | EC50 nM H1650 (in vitro tumor cell cytotoxicity) [nM]
1 | huAb13v1-CZ (antibody, human IgG1, kappa, L234A L235A, V domains shown, synthon CZ on interchain Cys) VH: EVQLQESGPGLVKPSETLSLTCAVTGYSITSGYSWHWIRQFPGNGLEWMGYIHSSGSTNYNPSLKSRISISRDTSKNQFFLKLSSVTAADTAVYYCAGYDDYFEYWGQGTTVTVSS VL: DIQMTQSPSSLSASVGDRVTITCKASQNVGFNVAWYQQKPGKSPKALIYSASYRYSGVPSRFSGSGSGTDFTLTISSLQPEDFAEYFCQQYNWYPFTFGQGTKLEIKR | 0.18
2 | huAb13v1-YG (antibody, human IgG1, kappa, L234A L235A, V domains shown, synthon YG on interchain Cys) VH: EVQLQESGPGLVKPSETLSLTCAVTGYSITSGYSWHWIRQFPGNGLEWMGYIHSSGSTNYNPSLKSRISISRDTSKNQFFLKLSSVTAADTAVYYCAGYDDYFEYWGQGTTVTVSS VL: DIQMTQSPSSLSASVGDRVTITCKASQNVGFNVAWYQQKPGKSPKALIYSASYRYSGVPSRFSGSGSGTDFTLTISSLQPEDFAEYFCQQYNWYPFTFGQGTKLEIKR | 0.33
3 | huAb13v1-KZ (antibody, human IgG1, kappa, L234A L235A, V domains shown, synthon KZ on interchain Cys) VH: EVQLQESGPGLVKPSETLSLTCAVTGYSITSGYSWHWIRQFPGNGLEWMGYIHSSGSTNYNPSLKSRISISRDTSKNQFFLKLSSVTAADTAVYYCAGYDDYFEYWGQGTTVTVSS VL: DIQMTQSPSSLSASVGDRVTITCKASQNVGFNVAWYQQKPGKSPKALIYSASYRYSGVPSRFSGSGSGTDFTLTISSLQPEDFAEYFCQQYNWYPFTFGQGTKLEIKR | 179
4 | huAb13v1-XW (antibody, human IgG1, kappa, L234A L235A, V domains shown, synthon XW on interchain Cys) VH: EVQLQESGPGLVKPSETLSLTCAVTGYSITSGYSWHWIRQFPGNGLEWMGYIHSSGSTNYNPSLKSRISISRDTSKNQFFLKLSSVTAADTAVYYCAGYDDYFEYWGQGTTVTVSS VL: DIQMTQSPSSLSASVGDRVTITCKASQNVGFNVAWYQQKPGKSPKALIYSASYRYSGVPSRFSGSGSGTDFTLTISSLQPEDFAEYFCQQYNWYPFTFGQGTKLEIKR | 0.86
5 | huAb13v1-TX (antibody, human IgG1, kappa, L234A L235A, V domains shown, synthon TX on interchain Cys) VH: EVQLQESGPGLVKPSETLSLTCAVTGYSITSGYSWHWIRQFPGNGLEWMGYIHSSGSTNYNPSLKSRISISRDTSKNQFFLKLSSVTAADTAVYYCAGYDDYFEYWGQGTTVTVSS VL: DIQMTQSPSSLSASVGDRVTITCKASQNVGFNVAWYQQKPGKSPKALIYSASYRYSGVPSRFSGSGSGTDFTLTISSLQPEDFAEYFCQQYNWYPFTFGQGTKLEIKR | 0.22
6 | huAb13v1-SE (antibody, human IgG1, kappa, L234A L235A, V domains shown, synthon SE on interchain Cys) VH: EVQLQESGPGLVKPSETLSLTCAVTGYSITSGYSWHWIRQFPGNGLEWMGYIHSSGSTNYNPSLKSRISISRDTSKNQFFLKLSSVTAADTAVYYCAGYDDYFEYWGQGTTVTVSS VL: DIQMTQSPSSLSASVGDRVTITCKASQNVGFNVAWYQQKPGKSPKALIYSASYRYSGVPSRFSGSGSGTDFTLTISSLQPEDFAEYFCQQYNWYPFTFGQGTKLEIKR | 0.63
7 | huAb13v1-SR (antibody, human IgG1, kappa, L234A L235A, V domains shown, synthon SR on interchain Cys) VH: EVQLQESGPGLVKPSETLSLTCAVTGYSITSGYSWHWIRQFPGNGLEWMGYIHSSGSTNYNPSLKSRISISRDTSKNQFFLKLSSVTAADTAVYYCAGYDDYFEYWGQGTTVTVSS VL: DIQMTQSPSSLSASVGDRVTITCKASQNVGFNVAWYQQKPGKSPKALIYSASYRYSGVPSRFSGSGSGTDFTLTISSLQPEDFAEYFCQQYNWYPFTFGQGTKLEIKR | 0.59
8 | huAb3v2.5-CZ (antibody, human IgG1, kappa, L234A L235A, V domains shown, synthon CZ on interchain Cys) VH: EVQLVQSGAEVKKPGSSVKVSCKASGYTFSSYWMHWVRQAPGQGLEWIGLIHPESGSTNYNEMFKNRATLTVDRSTSTAYMELSSLRSEDTAVYYCAGGGRLYFDYWGQGTTVTVSS VL: DIVMTQSPLSLPVTPGEPASISCRSSQSLVHSNRDTYLRWYLQKPGQSPQLLIYKVSNRFSGVPDRFSGSGSGTDFTLKISRVEAEDVGVYYCSQSTHVPYTFGGGTKVEIKR | 0.4
9 | huAb3v2.5-SR (antibody, human IgG1, kappa, L234A L235A, V domains shown, synthon SR on interchain Cys) VH: EVQLVQSGAEVKKPGSSVKVSCKASGYTFSSYWMHWVRQAPGQGLEWIGLIHPESGSTNYNEMFKNRATLTVDRSTSTAYMELSSLRSEDTAVYYCAGGGRLYFDYWGQGTTVTVSS VL: DIVMTQSPLSLPVTPGEPASISCRSSQSLVHSNRDTYLRWYLQKPGQSPQLLIYKVSNRFSGVPDRFSGSGSGTDFTLKISRVEAEDVGVYYCSQSTHVPYTFGGGTKVEIKR | 0.59
10 | huAb3v2.5-LB (antibody, human IgG1, kappa, L234A L235A, V domains shown, synthon LB on interchain Cys) VH: EVQLVQSGAEVKKPGSSVKVSCKASGYTFSSYWMHWVRQAPGQGLEWIGLIHPESGSTNYNEMFKNRATLTVDRSTSTAYMELSSLRSEDTAVYYCAGGGRLYFDYWGQGTTVTVSS VL: DIVMTQSPLSLPVTPGEPASISCRSSQSLVHSNRDTYLRWYLQKPGQSPQLLIYKVSNRFSGVPDRFSGSGSGTDFTLKISRVEAEDVGVYYCSQSTHVPYTFGGGTKVEIKR | 2.59
11 | huAb3v2.5-SE (antibody, human IgG1, kappa, L234A L235A, V domains shown, synthon SE on interchain Cys) VH: EVQLVQSGAEVKKPGSSVKVSCKASGYTFSSYWMHWVRQAPGQGLEWIGLIHPESGSTNYNEMFKNRATLTVDRSTSTAYMELSSLRSEDTAVYYCAGGGRLYFDYWGQGTTVTVSS VL: DIVMTQSPLSLPVTPGEPASISCRSSQSLVHSNRDTYLRWYLQKPGQSPQLLIYKVSNRFSGVPDRFSGSGSGTDFTLKISRVEAEDVGVYYCSQSTHVPYTFGGGTKVEIKR | 0.85
12 | huAb3v2.5-XW (antibody, human IgG1, kappa, L234A L235A, V domains shown, synthon XW on interchain Cys) VH: EVQLVQSGAEVKKPGSSVKVSCKASGYTFSSYWMHWVRQAPGQGLEWIGLIHPESGSTNYNEMFKNRATLTVDRSTSTAYMELSSLRSEDTAVYYCAGGGRLYFDYWGQGTTVTVSS VL: DIVMTQSPLSLPVTPGEPASISCRSSQSLVHSNRDTYLRWYLQKPGQSPQLLIYKVSNRFSGVPDRFSGSGSGTDFTLKISRVEAEDVGVYYCSQSTHVPYTFGGGTKVEIKR | 2.18
13 | huAb3v2.5-ZT (antibody, human IgG1, kappa, L234A L235A, V domains shown, synthon ZT on interchain Cys) VH: EVQLVQSGAEVKKPGSSVKVSCKASGYTFSSYWMHWVRQAPGQGLEWIGLIHPESGSTNYNEMFKNRATLTVDRSTSTAYMELSSLRSEDTAVYYCAGGGRLYFDYWGQGTTVTVSS VL: DIVMTQSPLSLPVTPGEPASISCRSSQSLVHSNRDTYLRWYLQKPGQSPQLLIYKVSNRFSGVPDRFSGSGSGTDFTLKISRVEAEDVGVYYCSQSTHVPYTFGGGTKVEIKR | 0.95
14 | huAb3v2.5-AAD (antibody, human IgG1, kappa, L234A L235A, V domains shown, synthon AAD on interchain Cys) VH: EVQLVQSGAEVKKPGSSVKVSCKASGYTFSSYWMHWVRQAPGQGLEWIGLIHPESGSTNYNEMFKNRATLTVDRSTSTAYMELSSLRSEDTAVYYCAGGGRLYFDYWGQGTTVTVSS VL: DIVMTQSPLSLPVTPGEPASISCRSSQSLVHSNRDTYLRWYLQKPGQSPQLLIYKVSNRFSGVPDRFSGSGSGTDFTLKISRVEAEDVGVYYCSQSTHVPYTFGGGTKVEIKR | 0.49
15 | huAb3v2.5-TV (antibody, human IgG1, kappa, L234A L235A, V domains shown, synthon TV on interchain Cys) VH: EVQLVQSGAEVKKPGSSVKVSCKASGYTFSSYWMHWVRQAPGQGLEWIGLIHPESGSTNYNEMFKNRATLTVDRSTSTAYMELSSLRSEDTAVYYCAGGGRLYFDYWGQGTTVTVSS VL: DIVMTQSPLSLPVTPGEPASISCRSSQSLVHSNRDTYLRWYLQKPGQSPQLLIYKVSNRFSGVPDRFSGSGSGTDFTLKISRVEAEDVGVYYCSQSTHVPYTFGGGTKVEIKR | 0.53
16 | huAb3v2.5-WD (antibody, human IgG1, kappa, L234A L235A, V domains shown, synthon WD on interchain Cys) VH: EVQLVQSGAEVKKPGSSVKVSCKASGYTFSSYWMHWVRQAPGQGLEWIGLIHPESGSTNYNEMFKNRATLTVDRSTSTAYMELSSLRSEDTAVYYCAGGGRLYFDYWGQGTTVTVSS VL: DIVMTQSPLSLPVTPGEPASISCRSSQSLVHSNRDTYLRWYLQKPGQSPQLLIYKVSNRFSGVPDRFSGSGSGTDFTLKISRVEAEDVGVYYCSQSTHVPYTFGGGTKVEIKR | 0.83
17 | huAb3v2.5-TX (antibody, human IgG1, kappa, L234A L235A, V domains shown, synthon TX on interchain Cys) VH: EVQLVQSGAEVKKPGSSVKVSCKASGYTFSSYWMHWVRQAPGQGLEWIGLIHPESGSTNYNEMFKNRATLTVDRSTSTAYMELSSLRSEDTAVYYCAGGGRLYFDYWGQGTTVTVSS VL: DIVMTQSPLSLPVTPGEPASISCRSSQSLVHSNRDTYLRWYLQKPGQSPQLLIYKVSNRFSGVPDRFSGSGSGTDFTLKISRVEAEDVGVYYCSQSTHVPYTFGGGTKVEIKR | 0.62
18 | huAb3v2.5-ZZ (antibody, human IgG1, kappa, L234A L235A, V domains shown, synthon ZZ on interchain Cys) VH: EVQLVQSGAEVKKPGSSVKVSCKASGYTFSSYWMHWVRQAPGQGLEWIGLIHPESGSTNYNEMFKNRATLTVDRSTSTAYMELSSLRSEDTAVYYCAGGGRLYFDYWGQGTTVTVSS VL: DIVMTQSPLSLPVTPGEPASISCRSSQSLVHSNRDTYLRWYLQKPGQSPQLLIYKVSNRFSGVPDRFSGSGSGTDFTLKISRVEAEDVGVYYCSQSTHVPYTFGGGTKVEIKR | 1.1
19 | huAb3v2.5-AAA (antibody, human IgG1, kappa, L234A L235A, V domains shown, synthon AAA on interchain Cys) VH: EVQLVQSGAEVKKPGSSVKVSCKASGYTFSSYWMHWVRQAPGQGLEWIGLIHPESGSTNYNEMFKNRATLTVDRSTSTAYMELSSLRSEDTAVYYCAGGGRLYFDYWGQGTTVTVSS VL: DIVMTQSPLSLPVTPGEPASISCRSSQSLVHSNRDTYLRWYLQKPGQSPQLLIYKVSNRFSGVPDRFSGSGSGTDFTLKISRVEAEDVGVYYCSQSTHVPYTFGGGTKVEIKR | 0.85
20 | huAb3v2.5-YY (antibody, human IgG1, kappa, L234A L235A, V domains shown, synthon YY on interchain Cys) VH: EVQLVQSGAEVKKPGSSVKVSCKASGYTFSSYWMHWVRQAPGQGLEWIGLIHPESGSTNYNEMFKNRATLTVDRSTSTAYMELSSLRSEDTAVYYCAGGGRLYFDYWGQGTTVTVSS VL: DIVMTQSPLSLPVTPGEPASISCRSSQSLVHSNRDTYLRWYLQKPGQSPQLLIYKVSNRFSGVPDRFSGSGSGTDFTLKISRVEAEDVGVYYCSQSTHVPYTFGGGTKVEIKR | 0.71
